Target: T1, Dcp1:Dcp2(1-504) (S. pombe, UniProt Q9P805 1-127; O13828 1-504)
T1 sequence (looked up) 1: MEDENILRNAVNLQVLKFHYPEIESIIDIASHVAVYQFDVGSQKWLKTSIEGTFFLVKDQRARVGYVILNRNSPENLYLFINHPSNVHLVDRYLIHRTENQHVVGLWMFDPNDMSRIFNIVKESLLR
T1 sequence (looked up) 2: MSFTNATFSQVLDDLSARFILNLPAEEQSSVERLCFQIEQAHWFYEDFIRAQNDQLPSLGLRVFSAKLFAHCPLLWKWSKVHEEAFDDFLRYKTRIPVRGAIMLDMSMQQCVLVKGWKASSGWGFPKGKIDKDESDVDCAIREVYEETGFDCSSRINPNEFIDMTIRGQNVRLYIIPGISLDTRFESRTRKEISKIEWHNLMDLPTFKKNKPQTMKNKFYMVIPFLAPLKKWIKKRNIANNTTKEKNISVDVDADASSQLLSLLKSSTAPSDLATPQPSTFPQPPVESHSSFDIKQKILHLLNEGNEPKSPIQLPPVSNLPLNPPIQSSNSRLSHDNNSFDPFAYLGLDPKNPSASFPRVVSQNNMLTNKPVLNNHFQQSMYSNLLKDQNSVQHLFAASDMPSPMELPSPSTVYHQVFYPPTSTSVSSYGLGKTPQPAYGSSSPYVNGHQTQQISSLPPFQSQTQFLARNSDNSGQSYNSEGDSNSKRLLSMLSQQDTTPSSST
Experiment: cell-based or functional assay

stimulation of the decapping rate of Dcp1:Dcp2ext by excess Edc3: 30 fold
B1: Edc3 (natural protein, S. pombe, UniProt O94752 1-454, looked up)
chain: MSVADFYGSNVEVLLNNDSKARGVITNFDSSNSILQLRLANDSTKSIVTKDIKDLRILPKNEIMPKNGTKSPSTNSTKLKSAETYSSKNKWSMDCDEEFDFAANLEKFDKKQVFAEFREKDKKDPAKLLVSHNKSPNRNYHHKQNVLGPSVKDEFVDLPSAGSQINGIDAVLSSSSNGHVTPGSKKGSRETLKKKPFVDENIPAELHTTTGDILKPITPEQLSQGIALAIAKTSTDIVVENAAQLLSQFVFSVLGGHKRLSSRNHNSQPLVCILVGSHDHASAAVAAGRRLCAIGIKVVLRLLTPFNVDNRQLLMFQAAGGYIPTENFDQFLNKLTSPIELVVDVLTGFHPSIDKNSHALIQWANDLNVLILSVDIPSGYTVQKKNTAILPKWTLALGAVTTTLAQAALVKQAAGVSVFVGNLGTGSQTWAELGILESQVTGQYLAQISCTSTN

Source: doi:10.1101/266718 (bioRxiv, 2018)
